From US20060264616
Residue numbers refer to the chain shown, from its start. Names may count otherwise.

T1: reconstituted tissue factor (Innovin, Dade) and membrane, P13726
T1 chain: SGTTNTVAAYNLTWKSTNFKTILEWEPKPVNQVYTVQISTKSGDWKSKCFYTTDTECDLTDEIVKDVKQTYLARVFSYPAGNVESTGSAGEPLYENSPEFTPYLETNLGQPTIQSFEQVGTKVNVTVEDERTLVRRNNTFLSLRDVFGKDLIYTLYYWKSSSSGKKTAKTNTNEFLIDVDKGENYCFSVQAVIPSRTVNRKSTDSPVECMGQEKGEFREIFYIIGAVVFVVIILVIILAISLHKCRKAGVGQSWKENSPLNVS

B1: factor VII F5K (protein)
chain: ANAKLEELRPGSLERECKEEQCSFEEAREIFKDAERTKLFWISYSDGDQCASSPCQNGGSCKDQLQSYICFCLPAFEGRNCETHKDDQLICVNENGGCEQYCSDHTGTKRSCRCHEGYSLLADGVSCTPTVEYPCGKIPILEKRNASKPQGRIVGGKVCPKGECPWQVLLLVNGAQLCGGTLINTIWVVSAAHCFDKIKNWRNLIAVLGEHDLSEHDGDEQSRRVAQVIIPSTYVPGTTNHDIALLRLHQPVVLTDHVVPLCLPERTFSERTLAFVRFSLVSGWGQLLDRGATALELMVLNVPRLMTQDCLQQSRKVGDSPNITEYMFCAGYSDGSKDSCKGDSGGPHATHYRGTWYLTGIVSWGQGCATVGHFGVYTRVSQYIEWLQKLMRSEPRPGVLLRAPFP
B2: factor VII mutant Q11E33D36 (protein)
chain: B1 chain with K4F, P10Q, K32E, E35D
B3: Factor VII mutant Q11E33F34I35 (protein)
chain: B1 chain with K4F, P10Q, K32E, D33F, A34I

Assays:
[1] = biological target: reconstituted tissue factor (Innovin, Dade) and membrane (UniProt P13726)
[2] = biological target: T1, reconstituted tissue factor (Innovin, …)

Row | Molecule | activity (competitive assay described in Example 6) [1] | activity in the competitive assay described in Example 6 [2]
1 | Factor VII mutant Q11E33I34F35 | displayed similar activity as the Q11E33F34I35 mutant | –
2 | B1 | – | a protein with 33% of the activity of wild type factor VII
3 | B2 | – | had 70% the activity of the Q11E33 mutant
4 | B3 | – | The activity of the resulting mutant Q11E33F34135 was 60% that of the Q11E33F34 mutant
